B1: NRC3_wobSeed26_DR1_T8C_o1 (dsDNA)
DNA 1: GCTCTAGCTGGTCAAAGGTCACACACTCGAAATGCGGCGATTGACAGCGTAGAATGAAGG
DNA 2: CCTTCATTCTACGCTGTCAATCGCCGCATTTCGAGTGTGTGACCTTTGACCAGCTAGAGC
B2: NRC3_wobSeed101_DR4_G20T_o1 (dsDNA)
DNA 1: GCCCTTACGGGTCACTCCATGTTATAGCATCGGAGTGCGATTGACAGCGTAGAATGAAGG
DNA 2: CCTTCATTCTACGCTGTCAATCGCACTCCGATGCTATAACATGGAGTGACCCGTAAGGGC
B3: NRC3_wobSeed49_DR2_C7G_o1 (dsDNA)
DNA 1: GCCAAAGTAGGTCAAGAGGTCAAAGTCCGCTTCCCGGCGATTGACAGCGTAGAATGAAGG
DNA 2: CCTTCATTCTACGCTGTCAATCGCCGGGAAGCGGACTTTGACCTCTTGACCTACTTTGGC
B4: NRC3_wobSeed122_DR5_G10T_o1 (dsDNA)
DNA 1: GCGCTAGTTTGTCAGTAAAAGGTCACACACCGGTCGGCGATTGACAGCGTAGAATGAAGG
DNA 2: CCTTCATTCTACGCTGTCAATCGCCGACCGGTGTGTGACCTTTTACTGACAAACTAGCGC
B5: NRC3_wobSeed122_DR5_C4A_o1 (dsDNA)
DNA 1: B4 DNA 1 with C4A, T10G
DNA 2: B4 DNA 2 with A51C, G57T
B6: NRC3_wobSeed88_DR3_C7A_o1 (dsDNA)
DNA 1: GCTAGCATAGGTCATGCGGGCCAGTATAGTGTCGGCGCGATTGACAGCGTAGAATGAAGG
DNA 2: CCTTCATTCTACGCTGTCAATCGCGCCGACACTATACTGGCCCGCATGACCTATGCTAGC
B7: NRC3_wobSeed34_DR1_A15C_o1 (dsDNA)
DNA 1: GCATCGAAAGGTCGCAGGTGAGTATACCCACCCGAAGCGATTGACAGCGTAGAATGAAGG
DNA 2: CCTTCATTCTACGCTGTCAATCGCTTCGGGTGGGTATACTCACCTGCGACCTTTCGATGC
B8: NRC3_wobSeed34_DR1_G6T_o1 (dsDNA)
DNA 1: B7 DNA 1 with G6T, C15A
DNA 2: B7 DNA 2 with G46T, C55A
B9: NRC3_wobSeed98_DR4_o1 (dsDNA)
DNA 1: GCACTAGTTGGTCAGCTGAGGTCACACACAATTCGGGCGATTGACAGCGTAGAATGAAGG
DNA 2: CCTTCATTCTACGCTGTCAATCGCCCGAATTGTGTGTGACCTCAGCTGACCAACTAGTGC
B10: NRC3_wobSeed98_DR4_G15C_o1 (dsDNA)
DNA 1: B9 DNA 1 with G15C
DNA 2: B9 DNA 2 with C46G
B11: NRC3_wobSeed2_DR0_C4T_o1 (dsDNA)
DNA 1: GCCTTAGTTGGTCAAGGTCACACACGCTATAGGTACGCGATTGACAGCGTAGAATGAAGG
DNA 2: CCTTCATTCTACGCTGTCAATCGCGTACCTATAGCGTGTGTGACCTTGACCAACTAAGGC
B12: NRC3_wobSeed73_DR3_G26C_o1 (dsDNA)
DNA 1: GCCAAACTAGGTCACAGAGGTCAAACTCCGTGCGTAGCGATTGACAGCGTAGAATGAAGG
DNA 2: CCTTCATTCTACGCTGTCAATCGCTACGCACGGAGTTTGACCTCTGTGACCTAGTTTGGC
B13: NRC3_wobSeed73_DR3_C22T_o1 (dsDNA)
DNA 1: B12 DNA 1 with C22T, C26G
DNA 2: B12 DNA 2 with G35C, G39A
B14: NRC3_wobSeed133_DR5_T23C_o1 (dsDNA)
DNA 1: GCCGTCCAAGGTCAATGCTAGGCCAGTGAAAGCATTGCGATTGACAGCGTAGAATGAAGG
DNA 2: CCTTCATTCTACGCTGTCAATCGCAATGCTTTCACTGGCCTAGCATTGACCTTGGACGGC
B15: NRC3_wobSeed21_DR0_G17C_o1 (dsDNA)
DNA 1: GCCGTCAAAGTTCAAGCTAACGTAACAGAAAGCAGCGCGATTGACAGCGTAGAATGAAGG
DNA 2: CCTTCATTCTACGCTGTCAATCGCGCTGCTTTCTGTTACGTTAGCTTGAACTTTGACGGC
B16: NRC3_wobSeed30_DR1_C4G_o1 (dsDNA)
DNA 1: GCAGTAGCAGGCCAAGGGTCACTCAAGATTAGTCCGGCGATTGACAGCGTAGAATGAAGG
DNA 2: CCTTCATTCTACGCTGTCAATCGCCGGACTAATCTTGAGTGACCCTTGGCCTGCTACTGC
B17: NRC3_wobSeed29_DR1_T22C_o1 (dsDNA)
DNA 1: GCGCTTACGGGTCAAAGGTTACAGCATGAATAGAATGCGATTGACAGCGTAGAATGAAGG
DNA 2: CCTTCATTCTACGCTGTCAATCGCATTCTATTCATGCTGTAACCTTTGACCCGTAAGCGC
B18: NRC3_wobSeed93_DR3_T26A_o1 (dsDNA)
DNA 1: GCAGTCAAAGTTCATCTAGGTAACGAAAGATATGCTGCGATTGACAGCGTAGAATGAAGG
DNA 2: CCTTCATTCTACGCTGTCAATCGCAGCATATCTTTCGTTACCTAGATGAACTTTGACTGC
B19: NRC3_wobSeed93_DR3_A23T_o1 (dsDNA)
DNA 1: B18 DNA 1 with A23T, A26T
DNA 2: B18 DNA 2 with T35A, T38A
B20: NRC3_wobSeed3_DR0_G21C_o1 (dsDNA)
DNA 1: GCGCTCGGAGGACAAGGTCACAGCTTTGTCCGTAGAGCGATTGACAGCGTAGAATGAAGG
DNA 2: CCTTCATTCTACGCTGTCAATCGCTCTACGGACAAAGCTGTGACCTTGTCCTCCGAGCGC
B21: NRC3_wobSeed5_DR0_A20G_o1 (dsDNA)
DNA 1: GCCCTTACGGGTCAAGGTTGTAGCACGGGTGGTACGGCGATTGACAGCGTAGAATGAAGG
DNA 2: CCTTCATTCTACGCTGTCAATCGCCGTACCACCCGTGCTACAACCTTGACCCGTAAGGGC
B22: NRC3_wobSeed46_DR1_G13T_o1 (dsDNA)
DNA 1: GCTTACCAAGGTTAAAGGTCGTTGATGCACGCCTTGGCGATTGACAGCGTAGAATGAAGG
DNA 2: CCTTCATTCTACGCTGTCAATCGCCAAGGCGTGCATCAACGACCTTTAACCTTGGTAAGC
B23: NRC3_wobSeed109_DR4_G25T_o1 (dsDNA)
DNA 1: GCCGTCCAAGGTCATAGGAGGTCATTGAAGACAGATGCGATTGACAGCGTAGAATGAAGG
DNA 2: CCTTCATTCTACGCTGTCAATCGCATCTGTCTTCAATGACCTCCTATGACCTTGGACGGC
B24: NRC3_wobSeed74_DR3_C15T_o1 (dsDNA)
DNA 1: GCTCTAGTTGGTCATGGAGGTCACACACGACGGGTAGCGATTGACAGCGTAGAATGAAGG
DNA 2: CCTTCATTCTACGCTGTCAATCGCTACCCGTCGTGTGTGACCTCCATGACCAACTAGAGC
B25: NRC3_wobSeed100_DR4_C12G_o1 (dsDNA)
DNA 1: GCCCTACTGGGGCACGAAAGGTCATTGATTCAGTGAGCGATTGACAGCGTAGAATGAAGG
DNA 2: CCTTCATTCTACGCTGTCAATCGCTCACTGAATCAATGACCTTTCGTGCCCCAGTAGGGC
B26: NRC3_wobSeed100_DR4_C15T_o1 (dsDNA)
DNA 1: B25 DNA 1 with G12C, C15T
DNA 2: B25 DNA 2 with G46A, C49G
B27: NRC3_wobSeed100_DR4_C13G_o1 (dsDNA)
DNA 1: B25 DNA 1 with G12C, C13G
DNA 2: B25 DNA 2 with G48C, C49G
B28: NRC3_wobSeed82_DR3_A28G_o1 (dsDNA)
DNA 1: GCATCGAAAGGTCGACGAGGTGAGTATGCACCGTTTGCGATTGACAGCGTAGAATGAAGG
DNA 2: CCTTCATTCTACGCTGTCAATCGCAAACGGTGCATACTCACCTCGTCGACCTTTCGATGC
B29: NRC3_wobSeed18_DR0_G16T_o1 (dsDNA)
DNA 1: GCGATACAGGGTCAATGCCAGAGTACGCGTATTGATGCGATTGACAGCGTAGAATGAAGG
DNA 2: CCTTCATTCTACGCTGTCAATCGCATCAATACGCGTACTCTGGCATTGACCCTGTATCGC
B30: NRC3_wobSeed97_DR4_T28C_o1 (dsDNA)
DNA 1: GCCAAACTAGGTCACGAAAGGTCAAAGCCGAATGACGCGATTGACAGCGTAGAATGAAGG
DNA 2: CCTTCATTCTACGCTGTCAATCGCGTCATTCGGCTTTGACCTTTCGTGACCTAGTTTGGC
B31: NRC3_wobSeed97_DR4_T22G_o1 (dsDNA)
DNA 1: B30 DNA 1 with T22G, C28T
DNA 2: B30 DNA 2 with G33A, A39C
B32: NRC3_wobSeed44_DR1_T13C_o1 (dsDNA)
DNA 1: GCTGAATGAGGTCAAAGATCAGGGAACGTGGCGTCGGCGATTGACAGCGTAGAATGAAGG
DNA 2: CCTTCATTCTACGCTGTCAATCGCCGACGCCACGTTCCCTGATCTTTGACCTCATTCAGC

Positions count from the first letter of the chain named.

This data set deals with RXRa (Homo sapiens, UniProt P19793). The data set can be described thus: no ligand; PBM; 180 nM; PBS pH 7.4, 2% milk, 0.02% Triton X-100, 1 mM DTT, BSA, 0.4 mg/ml salmon testes DNA. Conditions: tags: His cleaved; chain copies: 2; label: surface-attached array probe.
RXRa, sequence (P19793 whole entry): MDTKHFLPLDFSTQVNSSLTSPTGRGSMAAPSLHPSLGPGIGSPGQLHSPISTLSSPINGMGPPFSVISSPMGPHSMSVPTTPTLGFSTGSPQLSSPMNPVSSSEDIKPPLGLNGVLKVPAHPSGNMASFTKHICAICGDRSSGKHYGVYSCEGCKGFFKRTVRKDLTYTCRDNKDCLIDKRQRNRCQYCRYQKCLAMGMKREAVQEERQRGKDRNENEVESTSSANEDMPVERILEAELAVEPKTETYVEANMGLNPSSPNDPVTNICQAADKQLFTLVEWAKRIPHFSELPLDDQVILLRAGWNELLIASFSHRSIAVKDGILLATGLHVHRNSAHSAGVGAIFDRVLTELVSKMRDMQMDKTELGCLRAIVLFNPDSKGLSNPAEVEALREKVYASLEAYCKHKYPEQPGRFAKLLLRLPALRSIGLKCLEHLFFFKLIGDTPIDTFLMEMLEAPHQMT
B1: the binding signal is 8.94 PBM z-score against 500 random probes.

Consider B2, for which the binding signal is 4.24 PBM z-score against 500 random probes.

For the molecule B3, the binding signal is 8.95 PBM z-score against 500 random probes.

Take B4: the binding signal is 5.24 PBM z-score against 500 random probes.

With B5, the binding signal is 4.99 PBM z-score against 500 random probes.

Turning to B6, the binding signal was 4.81 PBM z-score against 500 random probes.

As for B7, the binding signal was 5.33 PBM z-score against 500 random probes.

As for B8, the binding signal was 4.9 PBM z-score against 500 random probes.

Turning to B9, the binding signal was 4.42 PBM z-score against 500 random probes.

Turning to B10, the binding signal was 4.28 PBM z-score against 500 random probes.

Take B11: the binding signal was 5.06 PBM z-score against 500 random probes.

With B12, the binding signal is 8.89 PBM z-score against 500 random probes.

As to B13, the binding signal is 5.19 PBM z-score against 500 random probes.

B14: the binding signal is 4.95 PBM z-score against 500 random probes.

Turning to B15, the binding signal was 4.62 PBM z-score against 500 random probes.

With B16, the binding signal is 4.38 PBM z-score against 500 random probes.

Turning to B17, the binding signal was 9.84 PBM z-score against 500 random probes.

For B18, the binding signal is 5.16 PBM z-score against 500 random probes.

Take B19: the binding signal was 4.47 PBM z-score against 500 random probes.

In the case of B20, the binding signal is 4.86 PBM z-score against 500 random probes.

Consider B21, for which the binding signal was 4.67 PBM z-score against 500 random probes.

Consider B22, for which the binding signal is 7.99 PBM z-score against 500 random probes.

Regarding B23, the binding signal is 7.89 PBM z-score against 500 random probes.

In the case of B24, the binding signal is 5.28 PBM z-score against 500 random probes.

With B25, the binding signal was 5.1 PBM z-score against 500 random probes.

On to B26, for which the binding signal is 4.52 PBM z-score against 500 random probes.

B27: the binding signal was 4.57 PBM z-score against 500 random probes.

Take B28: the binding signal was 4.34 PBM z-score against 500 random probes.

As for B29, the binding signal is 4.72 PBM z-score against 500 random probes.

In the case of B30, the binding signal is 8.92 PBM z-score against 500 random probes.

As for B31, the binding signal is 4.76 PBM z-score against 500 random probes.

Take B32: the binding signal is 7.98 PBM z-score against 500 random probes.
